Positions of bridges follow the written chain, without caps; N, C: chain ends. Non-standard residues stand in square brackets, D forms with d. No end group written: not given here. pGlu = O=C1CC[C@@H](C(=O)O)N1; Nle = CCCC[C@H](N)C(=O)O; I‑37 = not defined here

Experiment [1] concerns the target oxytocin receptor.
For experiment [2], the target named is RXFP1.
Experiment [3] deals with RXFP1. This is another data set of the same source.
Experiment [4] has as its target MC4R.
The target in experiment [5] is MC3R.
The target in experiment [6] is APJ (human, UniProt P35414). Briefly: cell-based or functional assay.
The target of experiment [7] is hFGF23-variant of Example 28B.

Chain of MC3R (P41968 whole entry): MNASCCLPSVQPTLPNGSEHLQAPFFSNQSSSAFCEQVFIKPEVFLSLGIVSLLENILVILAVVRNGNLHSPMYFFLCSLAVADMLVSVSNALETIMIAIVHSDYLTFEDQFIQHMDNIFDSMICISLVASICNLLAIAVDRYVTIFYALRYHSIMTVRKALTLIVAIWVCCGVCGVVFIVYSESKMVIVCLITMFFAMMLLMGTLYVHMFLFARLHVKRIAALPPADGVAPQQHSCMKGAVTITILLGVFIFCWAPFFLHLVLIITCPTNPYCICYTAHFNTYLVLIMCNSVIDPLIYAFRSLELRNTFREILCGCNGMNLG
Chain of oxytocin receptor (P30559 whole entry): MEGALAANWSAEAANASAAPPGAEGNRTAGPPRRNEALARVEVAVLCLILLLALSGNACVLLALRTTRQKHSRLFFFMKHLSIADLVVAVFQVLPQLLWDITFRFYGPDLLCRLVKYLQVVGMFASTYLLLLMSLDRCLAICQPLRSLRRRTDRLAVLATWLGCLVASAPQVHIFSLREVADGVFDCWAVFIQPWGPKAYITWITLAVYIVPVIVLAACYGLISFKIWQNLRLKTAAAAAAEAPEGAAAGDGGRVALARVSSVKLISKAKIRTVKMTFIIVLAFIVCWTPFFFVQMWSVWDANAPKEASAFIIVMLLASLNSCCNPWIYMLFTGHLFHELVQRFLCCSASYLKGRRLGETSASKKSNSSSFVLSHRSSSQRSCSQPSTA

Regarding Oxytocin (peptide), the Emax (the concentration where the reference agonist elicited a maximal response), calcium flux in experiment [1] was determined as 1.25 µM.

In experiment [2], Serelaxin (ligand) displayed a cAMP (HTRF), Ec50 (nM), 0% Plasma of 8 nM; a cAMP (HTRF), Ec50 (nM), 4% Plasma of 0.3 nM; a cAMP (HTRF), Ec50 (nM), 10% Plasma of 0.4 nM; a cAMP (HTRF), Ec50 (nM), 600 uL BSA of 0.7 nM. In experiment [3], the cAMP (HTRF), agonist mode, EC50 came to 1.12 nM.

B1: Example 27A: Mono fatty acid conjugate of AgRP (AgRP+1FA) (ligand)
chain: {I‑37}-SSRRCVRLHESCLGQQVPCCDPCATCYCRFFNAFCYCRKLGTAMNPCSRT
modifications: disulfide 12-26, 19-37, 5-20, 23-47, 28-35; reading uncertain
For the molecule B1, in experiment [4], the MC4R EC50 [nM] (HTRF cAMP assay) turned out to be 18 nM. Also, the MC3R EC50 [nM] (cAMP assay, antagonist protocol) in experiment [5] was 7 nM.

B2: pE-R-P-R-L-C*-H-K-G-P-Nle-C*-F-OH (Disulfide C6-C12) (peptide)
peptide: [pGlu]RPRLCHKGP[Nle]CF-OH
modifications: disulfide 6-12
SMILES: CCCC[C@@H]1NC(=O)[C@@H]2CCCN2C(=O)CNC(=O)[C@H](CCCCN)NC(=O)[C@H](Cc2c[nH]cn2)NC(=O)[C@@H](NC(=O)[C@H](CC(C)C)NC(=O)[C@H](CCCNC(=N)N)NC(=O)[C@@H]2CCCN2C(=O)[C@H](CCCNC(=N)N)NC(=O)[C@@H]2CCC(=O)N2)CSSC[C@@H](C(=O)N[C@@H](Cc2ccccc2)C(=O)O)NC1=O
Turning to B2, the “hAPJ Ca2+ Flux EC50” value in experiment [6] was 1.04 nM.

B3: Example 27B: Di-fatty acid conjugate of AgRP(83-132) (AgRP+2 FA) (ligand)
chain: {I‑37}-SSRRCVRLHESCLGQQVPCCDPCATCYCRFFNAFCYCRK(I‑37)LGTAMNPCSRT
modifications: disulfide 12-26, 19-37, 5-20, 23-47, 28-35; not fully specified; printed as Ser-Ser-Arg-Arg-Cys-Val-Arg-Leu-H is-Glu-Ser-Cys-Leu-Gly-Gln-Gln-Val-Pro-Cys-Cys-Asp-Pro-Cys-Ala-Thr-Cys-Tyr-Cys-Arg-Phe-Phe-Asn-Ala-Phe-Cys-Tyr-Cys-Arg-Lys-Leu-Gly-Thr-Ala-Met-Asn-Pro-Cys-Ser-Arg-Thr; reading uncertain
Take B3: the MC4R EC50 [nM] (HTRF cAMP assay) in experiment [4] worked out at 167 nM. Further, the MC3R EC50 [nM] (cAMP assay, antagonist protocol) in experiment [5] came out at 65 nM.

B4: pE-R-P-C*-L-S-C*-K-G-P-(D-Nle)-NH(Phenethyl) (disulfide C4-C7) (peptide)
peptide: ERPCLSCKGPL
modifications: pE (pyroglutamate) at the N-terminus; D-Nle at position 11; C-terminal NH(Phenethyl); disulfide C4-C7
As to B4, the “hAPJ Ca2+ Flux EC50” value in experiment [6] came to 3 nM.

B5: transglutaminase enzyme (Ajinomoto) (enzyme)
chain: DSDDRVTPPAEPLDRMPDPYRPSYGRAETVVNNYIRKWQQVYSHRDGRKQQMTEEQREWLSYGCVGVTWVNSGQYPTNRLAFASFDEDRFKNELKNGRPRSGETRAEFEGRVAKESFDEEKGFQRAREVASVMNRALENAHDESAYLDNLKKELANGNDALRNEDARSPFYSALRNTPSFKERNGGNHDPSRMKAVIYSKHFWSGQDRSSSADKRKYGDPDAFRPAPGTGLVDMSRDRNIPRSPTSPGEGFVNFDYGWFGAQTEADADKTVWTHGNHYHAPNGSLGAMHVYESKFRNWSEGYSDFDRGAYVITFIPKSWNTAPDKVKQGWP
Turning to B5, the TGase labelling of hFGF23-variant with intermediate 25d, LCMS in experiment [7] amounted to 90%.

B6: AgRP(83-132) (ligand)
chain: SSRRCVRLHESCLGQQVPCCDPCATCYCRFFNAFCYCRKLGTAMNPCSRT
modifications: disulfide 12-26, 19-37, 5-20, 23-47, 28-35
The molecule B6 showed an MC3R EC50 [nM] (cAMP assay, antagonist protocol) in experiment [5] of 12 nM.

Values taken from patent publication US10786576B2, “Fatty acids and their use in conjugation to biomolecules” (Novartis AG, dated 2020).
